target: T1, c-erbB-2 ECD with a Ser-Gly-His6 C-terminal fusion (UniProt P04626 23-652); assay: SPR BIAcore
T1 construct: extracellular domain; Expressed from CHO cells, IMAC purified; coupled to a CM5 chip, coated on plates, or biotinylated with NHS-LC-biotin; also called c-erbB-2 extracellular domain; biotinylated c-erbB-2 ECD

Binder	Kd [nM]	koff [s⁻¹]
C6ML3-18 (scFv) scFv: QVQLLQSGAELKKPGESLKISCKGSGYSFTSYWIAWVRQMPGKGLEYMGLIYPGDSDTKYSPSFQGQVTISVDKSVSTAYLQWSSLKPSDSAVYFCARHDVGYCSSSNCAKWPEYFQHWGQGTLVTVSSGGGGSGGGGSGGGGSQSVLTQPPSVSAAPGQKVTISCSGSSSNIGNNYVSWYQQLPGTAPKLLIYGHTNRPAGVPDRFSGSKSGTSASLAISGFRSEDEADYYCASWDASLWGWVFGGGTKLTVLG	2.4	0.00062
C6ML3-16 (scFv) scFv: QVQLLQSGAELKKPGESLKISCKGSGYSFTSYWIAWVRQMPGKGLEYMGLIYPGDSDTKYSPSFQGQVTISVDKSVSTAYLQWSSLKPSDSAVYFCARHDVGYCSSSNCAKWPEYFQHWGQGTLVTVSSGGGGSGGGGSGGGGSQSVLTQPPSVSAAPGQKVTISCSGSSSNIGNNYVSWYQQLPGTAPKLLIYGHTNRPAGVPDRFSGSKSGTSASLAISGFRSEDEADYYCASWDYYRSGWVFGGGTKLTVLG	5	0.0017
C6ML3-17 (scFv) scFv: QVQLLQSGAELKKPGESLKISCKGSGYSFTSYWIAWVRQMPGKGLEYMGLIYPGDSDTKYSPSFQGQVTISVDKSVSTAYLQWSSLKPSDSAVYFCARHDVGYCSSSNCAKWPEYFQHWGQGTLVTVSSGGGGSGGGGSGGGGSQSVLTQPPSVSAAPGQKVTISCSGSSSNIGNNYVSWYQQLPGTAPKLLIYGHTNRPAGVPDRFSGSKSGTSASLAISGFRSEDEADYYCASWDYYRSGWVFGGGTKLTVLG	5	0.0017

target: T1, c-erbB-2 ECD with a Ser-Gly-His6 …; assay: SPR BIAcore; remark: another data set of the same source
Procedure: All assays were performed in triplicate. Briefly, […] of radioiodinated sFv was added to 5×10^6 SK-OV cells in the presence of increasing concentrations of unlabeled sFv from the same preparation. After a 30 minute incubation at 20° C., the samples were washed with PBS at 4° C. and centrifuged at 500 g. The amount of labeled sFv bound to the cells was determined by counting the pellets in a gamma counter and the K_a, and K_d were calculated using the EBDA program (V 2.0, G. A. McPherson, 1983). The K_d of all the other isolated sFv were determined using surface plasmon resonance in a BIAcore (Pharmacia). In a BIAcore flow cell, approximately 1400 resonance units (RU) of c-erbB-2 ECD (25 μg/ml in 10 mM sodium acetate, pH 4.5) was coupled to a CM5 sensor chip (Johnsson et al. (1991), supra). Association and dissociation-rates were measured under continuous flow of […] using a concentration range from 50 to 800 nM. Rate constant $kon$ was determined from a plot of (1(dR/dt))/t vs concentration (Karlsson et al. (1991), supra). Rate constant $Hoff$ was determined from the dissociation part of the sensorgram at the highest concentration of sFv analyzed.
Dashes indicate sequence identity. Mutations arising from PCR error and located outside V_H CDR3 are listed under the heading other mutations. F = frequency of isolated scFv. *$koff$ determined from unpurified scFv samples. Underline indicates mutated residue.

Binder	Kd [nM]	koff [s⁻¹]
C6MH3-B16 (scFv, C6ML3-9 sFv, VH CDR3 library B mutant) scFv: QVQLLQSGAELKKPGESLKISCKGSGYSFTSYWIAWVRQMPGKGLEYMGLIYPGDSDTKYSPSFQGQVTISVDKSVSTAYLQWSSLKPSDSAVYFCARHDVGYCADVRCAKWPEYFQHWGQGTLVTVSSGGGGSGGGGSGGGGSQSVLTQPPSVSAAPGQKVTISCSGSSSNIGNNYVSWYQQLPGTAPKLLIYGHTNRPAGVPDRFSGSKSGTSASLAISGFRSEDEADYYCASWDYTLSGWVFGGGTKLTVLG	0.31	0.00028
C6MH3-B48 (scFv, C6ML3-9 sFv, VH CDR3 library B mutant) scFv: QVQLLQSGAELKKPGESLKISCKGSGYSFTSYWIAWVRQMPGKGLEYMGLIYPGDSDTKYSPSFQGQVTISVDKSVSTAYLQWSSLKPSDSAVYFCARHDVGYCTDPSCAKWPEYFQHWGQGTLVTVSSGGGGSGGGGSGGGGSQSVLTQPPSVSAAPGQKVTISCSGSSSNIGNNYVSWYQQLPGTAPKLLIYGHTNRPAGVPDRFSGSKSGTSASLAISGFRSEDEADYYCASWDYTLSGWVFGGGTKLTVLG	0.23	0.00013
C6MH3-D5 (scFv, C6ML3-9 sFv, VH CDR3 library D mutant) scFv: QVQLLQSGAELKKPGESLKISCKGSGYSFTSYWIAWVRQMPGKGLEYMGLIYPGDSDTKYSPSFQGQVTISVDKSVSTAYLQWSSLKPSDSAVYFCARHDVGYCSSSNCAKWPEWMQMWGQGTLVTVSSGGGGSGGGGSGGGGSQSVLTQPPSVSAAPGQKVTISCSGSSSNIGNNYVSWYQQLPGTAPKLLIYGHTNRPAGVPDRFSGSKSGTSASLAISGFRSEDEADYYCASWDYTLSGWVFGGGTKLTVLG	0.38	0.00021
C6MH3-B20 (scFv, C6ML3-9 sFv, VH CDR3 library B mutant) scFv: QVQLLQSGAELKKPGESLKISCKGSGYSFTSYWIAWVRQMPGKGLEYMGLIYPGDSDTKYSPSFQGQVTISVDKSVSTAYLQWSSLKPSDSAVYFCARHDVGYCSPARCAKWPEYFQHWGQGTLVTVSSGGGGSGGGGSGGGGSQSVLTQPPSVSAAPGQKVTISCSGSSSNIGNNYVSWYQQLPGTAPKLLIYGHTNRPAGVPDRFSGSKSGTSASLAISGFRSEDEADYYCASWDYTLSGWVFGGGTKLTVLG	0.87	0.00016
C6MH3-D3 (scFv, C6ML3-9 sFv, VH CDR3 library D mutant) scFv: QVQLLQSGAELKKPGESLKISCKGSGYSFTSYWIAWVRQMPGKGLEYMGLIYPGDSDTKYSPSFQGQVTISVDKSVSTAYLQWSSLKPSDSAVYFCARHDVGYCSSSNCAKWPEWLDNWGQGTLVTVSSGGGGSGGGGSGGGGSQSVLTQPPSVSAAPGQKVTISCSGSSSNIGNNYVSWYQQLPGTAPKLLIYGHTNRPAGVPDRFSGSKSGTSASLAISGFRSEDEADYYCASWDYTLSGWVFGGGTKLTVLG	0.27	0.00025
C6MH3-D1 (scFv, C6ML3-9 sFv, VH CDR3 library D mutant) scFv: QVQLLQSGAELKKPGESLKISCKGSGYSFTSYWIAWVRQMPGKGLEYMGLIYPGDSDTKYSPSFQGQVTISVDKSVSTAYLQWSSLKPSDSAVYFCARHDVGYCSSSNCAKWPEWLHVWGQGTLVTVSSGGGGSGGGGSGGGGSQSVLTQPPSVSAAPGQKVTISCSGSSSNIGNNYVSWYQQLPGTAPKLLIYGHTNRPAGVPDRFSGSKSGTSASLAISGFRSEDEADYYCASWDYTLSGWVFGGGTKLTVLG	0.31	0.00011
C6MH3-D6 (scFv, C6ML3-9 sFv, VH CDR3 library D mutant) scFv: QVQLLQSGAELKKPGESLKISCKGSGYSFTSYWIAWVRQMPGKGLEYMGLIYPGDSDTKYSPSFQGQVTISVDKSVSTAYLQWSSLKPSDSAVYFCARHDVGYCSSSNCAKWPEWMYPWGQGTLVTVSSGGGGSGGGGSGGGGSQSVLTQPPSVSAAPGQKVTISCSGSSSNIGNNYVSWYQQLPGTAPKLLIYGHTNRPAGVPDRFSGSKSGTSASLAISGFRSEDEADYYCASWDYTLSGWVFGGGTKLTVLG	0.35	0.00018
C6MH3-B21 (scFv, C6ML3-9 sFv, VH CDR3 library B mutant) scFv: QVQLLQSGAELKKPGESLKISCKGSGYSFTSYWIAWVRQMPGKGLEYMGLIYPGDSDTKYSPSFQGQVTISVDKSVSTAYLQWSSLKPSDSAVYFCARHDVGYCTTPLCAKWPEYFQHWGQGTLVTVSSGGGGSGGGGSGGGGSQSVLTQPPSVSAAPGQKVTISCSGSSSNIGNNYVSWYQQLPGTAPKLLIYGHTNRPAGVPDRFSGSKSGTSASLAISGFRSEDEADYYCASWDYTLSGWVFGGGTKLTVLG	0.73	0.00024
C6MH3-B27 (scFv, C6ML3-9 sFv, VH CDR3 library B mutant) scFv: QVQLLQSGAELKKPGESLKISCKGSGYSFTSYWIAWVRQMPGKGLEYMGLIYPGDSDTKYSPSFQGQVTISVDKSVSTAYLQWSSLKPSDSAVYFCARHDVGYCKNSRCAKWPEYFQHWGQGTLVTVSSGGGGSGGGGSGGGGSQSVLTQPPSVSAAPGQKVTISCSGSSSNIGNNYVSWYQQLPGTAPKLLIYGHTNRPAGVPDRFSGSKSGTSASLAISGFRSEDEADYYCASWDYTLSGWVFGGGTKLTVLG	0.47	0.0004
C6MH3-B25 (scFv, C6ML3-9 sFv, VH CDR3 library B mutant) scFv: QVQLLQSGAELKKPGESLKISCKGSGYSFTSYWIAWVRQMPGKGLEYMGLIYPGDSDTKYSPSFQGQVTISVDKSVSTAYLQWSSLKPSDSAVYFCARHDVGYCLTTRCAKWPEYFQHWGQGTLVTVSSGGGGSGGGGSGGGGSQSVLTQPPSVSAAPGQKVTISCSGSSSNIGNNYVSWYQQLPGTAPKLLIYGHTNRPAGVPDRFSGSKSGTSASLAISGFRSEDEADYYCASWDYTLSGWVFGGGTKLTVLG	0.36	0.00019
C6MH3-C3 (scFv) scFv: QVQLLQSGAELKKPEESLKISCKGSGYSFTSYWIAWVRQMPGKGLEYMGLIYPGDSDTKYSPSFQGQVTISVDKSVSTAYLQWSSLKPSDSAVYFCARHDVGYCSSSNCAKWPEYFQHWGQGTLVTVSSGGGGSGGGGSGGGGSQSVLTQPPSVSAAPGQKVTISCSGSSSNIGNNYVSWYQQLPGTAPKLLIYGHTDRPAGVPDRFSGSKSGTSASLAISGFRSEDEADYYCASWDYTLSGWVFGGGTKLTVLG	0.65	0.00032
C6MH3-B41 (scFv, C6ML3-9 sFv, VH CDR3 library B mutant) scFv: QVQLLQSGAELKKPGESLKISCKGSGYSFTSYWIAWVRQMPGKGLEYMGLIYPGDSDTKYSPSFQGQVTISVDKSVSTAYLQWSSLKPSDSAVYFCARHDVGYCTDRPCAKWPEYFQHWGQGTLVTVSSGGGGSGGGGSGGGGSQSVLTQPPSVSAAPGQKVTISCSGSSSNIGNNYVSWYQQLPGTAPKLLIYGHTNRPAGVPDRFSGSKSGTSASLAISGFRSEDEADYYCASWDYTLSGWVFGGGTKLTVLG	0.53	0.00027
C6ML3-A3 (scFv) scFv: QVQLLQSGAELKKPGESLKISCKGSGYSFTSYWIAWVRQMPGKGLEYMGLIYPGDSDTKYSPSFQGQVTISVDKSVSTAYLQWSSLKPSDSAVYFCARHDVGYCSSSDCAKWPEYFQHWGQGTLVTVSSGGGGSGGGGSGGGGSQSVLTQPPSVSAAPGQKVTISCSGSSSNIGNNYVSWYQQLPGTAPKLLIYGHTNRPAGVPDRFSGSKSGTSASLAISGFRSEDEADYYCASWDYTLSGWVFGGGTKLTVLG	16	0.0063
C6MH3-B39 (scFv, C6ML3-9 sFv, VH CDR3 library B mutant) scFv: QVQLLQSGAELKKPGESLKISCKGSGYSFTSYWIAWVRQMPGKGLEYMGLIYPGDSDTKYSPSFQGQVTISVDKSVSTAYLQWSSLKPSDSAVYFCARHDVGYCTDPTCAKWPEYFQHWGQGTLVTVSSGGGGSGGGGSGGGGSQSVLTQPPSVSAAPGQKVTISCSGSSSNIGNNYVSWYQQLPGTAPKLLIYGHTNRPAGVPDRFSGSKSGTSASLAISGFRSEDEADYYCASWDYTLSGWVFGGGTKLTVLG	0.32	0.00019

— patent US6512097
